Target: murine DLL3.HIS (IPA custom, amino acid 25-477) (mouse) (UniProt O88516)
Assay: BLI (Octet), captured on AHC sensor, antigen in solution

Sequence of murine DLL3.HIS (IPA custom, amino acid 25-477) (mouse) (O88516 25-477 limits assumed, form in doubt): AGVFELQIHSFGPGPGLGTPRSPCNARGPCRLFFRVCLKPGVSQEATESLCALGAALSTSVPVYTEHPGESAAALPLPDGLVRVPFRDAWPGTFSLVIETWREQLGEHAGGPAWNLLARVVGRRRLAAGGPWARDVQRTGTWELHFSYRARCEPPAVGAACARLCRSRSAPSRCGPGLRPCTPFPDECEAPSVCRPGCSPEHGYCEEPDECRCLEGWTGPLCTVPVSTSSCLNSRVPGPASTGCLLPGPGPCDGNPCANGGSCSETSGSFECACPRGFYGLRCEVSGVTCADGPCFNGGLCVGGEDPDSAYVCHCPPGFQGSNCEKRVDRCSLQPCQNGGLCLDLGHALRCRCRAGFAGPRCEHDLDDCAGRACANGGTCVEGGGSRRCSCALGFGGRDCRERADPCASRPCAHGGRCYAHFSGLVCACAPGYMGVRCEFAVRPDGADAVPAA

koff: 0.000267 s⁻¹
kon: 215000 M⁻¹ s⁻¹
B1: DLL3 VHH (Fc fusion, not shown: small tags and cut ends; a dimerising Fc or GST)
chain: EVQLVESGGGEVQPGGSLRLSCAASGSIFSINAMGWYRQAPGKQRELVAGFTGDTNTIYAESVKGRFTISRDNAKNTVYLQMSSLRAEDTAVYYCAADVQLFSRDYEFYWGQGTLVTVKP
